B1: Pyruvate dehydrogenase protein X component, mitochondrial, residues 181 to 227; numbered along this chain, O00330 (parent)
chain: RFRLSPAARNILEKHSLDASQGTATGPRGIFTKEDALKLVQLKQTGK

Variants of: B1
Assay: abundance fitness (aPCA) (normalised: wild type 0, dead -1); higher = more abundant; growth selection in yeast, the domain comes from the species named
Details: Homo sapiens

Abundance fitness of substitutions, site by site:
T32: I -0.965 | D -0.612 | Y -1.12 | P -0.492 | V -0.637 | L -0.553 | K -0.517 | R -0.698 | W -0.716 | G -0.482 | Q -0.376 | E -0.447 | H -0.389 | A -0.462 | M -0.947 | C -0.519 | N -0.733
E34: N -0.811 | S -0.178 | T -0.299 | D -0.058 | G -0.323 | V -0.515 | P -0.714 | A -0.155 | C -0.437 | M -0.536 | L -0.443 | W -0.334 | R -0.329 | F -0.388 | I -0.615 | H -0.095 | Q 0.054
L39: Q -0.619 | G -0.222 | V -0.315 | N 0.065 | D -0.121 | A -0.319 | M -0.089 | P -0.348 | T -0.505 | F -0.746 | Y -0.874 | C -0.694 | S -0.127 | K -0.545 | R -0.484 | H -0.271 | E -0.28 | W -0.731
T25: H -0.58 | M -0.423 | E -0.765 | W -1.06 | I -0.668 | G -0.445 | D -0.582 | P -0.559 | F -0.697 | L -0.519 | Q -0.522 | C -0.423 | R -0.563 | A -0.566 | K -0.414 | V -0.476 | Y -0.86
L37: E 0.278 | G -0.233 | R -0.377 | Q -0.545 | S -0.286 | F -0.402 | C -0.388 | D 0.035 | W -0.293 | P -0.541 | A -0.55 | M -0.183 | Y -0.383 | T -0.072 | H -0.544 | V -0.165 | I -0.369 | K -0.088
G26: V -0.489 | E -0.539 | Q -0.483 | D -0.444 | P -0.55 | S -0.608 | K -0.571 | M -0.435 | H -0.46 | F -0.642 | W -0.874 | A -0.603 | N -0.505 | L -0.516 | Y -0.8 | C -0.903
K38: W -0.951 | V -0.391 | H -0.149 | G -0.354 | F -0.781 | S 0.007 | T -0.643 | R 0.042 | A -0.105 | P -0.33 | C -0.453 | M -0.251 | D -0.577 | N -0.258 | I -0.604 | L -0.775
R28: C -0.072 | W -0.255 | I -0.936 | F -0.085 | Y -0.03 | H -0.202 | K 0.033 | M -0.071 | N 0.285 | P -0.408 | T -0.281 | V -0.456 | A -0.119 | S -0.146 | Q -0.314 | L -0.161 | E 0.06 | D 0.259
A24: C -0.473 | Q -0.597 | F -0.667 | K -0.638 | E -0.333 | V -0.476 | T -0.423 | S -0.271 | D -0.661 | H -0.454 | G -0.331 | P -0.191 | Y -1.07 | L -0.532 | N -0.31
D35: T -0.936 | I -0.956 | K -0.828 | Y -0.865 | L -0.76 | N -0.926 | C -1.06 | W -0.814 | R -0.847 | G -0.565 | Q -0.818 | E -0.439 | V -1 | F -1.25 | A -0.637
V40: Y -0.295 | T -0.706 | I -0.411 | C -0.183 | F -0.592 | K -0.099 | P -0.314 | R -0.439 | S -0.381 | G -0.545 | D -0.195 | Q -0.252 | H -1.01 | A -0.338
Q41: E 0.193 | G -0.227 | D -0.085 | C -0.855 | W -0.395 | Y -0.639 | M -0.181 | N -0.159 | S 0.2 | V -0.287 | L -0.353 | P -0.2 | R 0.214 | I -0.648 | H -0.452
F31: N -0.084 | Y -0.335 | P -0.206 | G -0.195 | A -0.451 | Q -0.424 | H -0.222 | V -0.349 | K -0.423 | R -0.455 | E -0.087 | W -0.675 | M -0.38 | L -0.412 | C -0.236 | T -0.171 | S -0.306
T23: Y -0.309
I30: V -0.263 | T 0.068 | W -0.229 | H -0.359 | P -0.363 | F -0.152 | M 0.137 | Y -0.292 | E 0.092 | R -0.413 | C -0.234 | A -0.105 | Q -0.178 | N -0.268 | S -0.145 | L 0.116 | G -0.271 | D -0.087
P27: K -0.146 | L -0.599 | H -0.309 | Q -0.221 | F -0.655 | V -0.515 | W -0.682 | S -0.213 | N -0.426 | I -0.547 | E -0.131 | T -0.167 | Y -0.689 | R -0.363 | C -0.323 | D -0.022 | G -0.491
G29: T -0.788 | L -0.609 | E -0.226 | S -0.435 | V -0.807 | H -0.773 | N -0.395 | Q -0.418 | Y -1.01 | P -0.569 | F -1.05 | I -0.349 | M -0.447 | D -0.101 | C -0.706 | W -0.892 | R -0.526
K33: W -0.762 | Q 0.036 | Y -0.401 | F -0.623 | L -0.379 | G -0.331 | D -0.279 | H -0.039 | M -0.325 | E 0.079 | N -0.462 | P -0.607 | A -0.113 | T -0.04 | I 0.047 | C -0.417 | V -0.291 | S -0.305
A36: T -0.669 | S -0.512 | K -0.563 | C -0.339 | D -0.262 | N -0.428 | I -0.947 | E -0.317 | M -0.41 | W -1.02 | P -0.908 | L -0.756 | V -0.823 | H -0.562 | R -0.723 | G -0.513
L42: S -0.247 | K 0.221 | T -0.198 | P -0.347 | Q 0.115 | M -0.09 | R -0.094 | I -0.291 | C 0.013 | D 0.085 | N -0.288 | A 0.131 | E 0.096 | G -0.183 | H -0.618 | F -0.535 | W -0.251 | Y -0.058 | V -0.001
K43: A -0.083 | H 0.299 | S 0.013 | G -0.141 | Q -0.057 | L -0.575 | C -0.267 | F -0.305 | Y -0.193 | D -0.227 | W -0.608 | P -0.477 | E -0.395 | V -0.28 | R -0.245
